Substitutions are numbered along the chain they refer to. Entries after “also recorded” stand apart in the source; their conditions may differ. Values belong to the molecule of their own block, whether it stands above or below them.
What was measured:
human SAS1B = biological target: T1, human SAS1B (Homo sapiens, UniProt Q6HA08); assay: Immunoprecipitation of SAS1B from HEK293T cells transfected with SAS1B; assay type: binding; conditions: for Pull down (immunoprecipitation) of SAS1B: HEK293T extract, western blot detection with anti-His mAb
T1 construct: made in house; host or cells: E. coli
T1 sequence (Q6HA08 24-431): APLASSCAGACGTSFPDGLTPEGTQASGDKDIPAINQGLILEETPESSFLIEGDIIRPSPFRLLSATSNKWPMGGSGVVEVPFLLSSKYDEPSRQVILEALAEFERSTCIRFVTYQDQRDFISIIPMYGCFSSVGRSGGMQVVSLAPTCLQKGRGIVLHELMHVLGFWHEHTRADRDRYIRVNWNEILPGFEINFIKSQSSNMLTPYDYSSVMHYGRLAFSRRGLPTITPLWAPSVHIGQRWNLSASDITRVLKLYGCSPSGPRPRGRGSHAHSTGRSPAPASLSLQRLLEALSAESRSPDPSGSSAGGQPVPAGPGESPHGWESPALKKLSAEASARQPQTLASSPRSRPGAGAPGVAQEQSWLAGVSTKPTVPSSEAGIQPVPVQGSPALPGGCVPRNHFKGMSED
Description: HEK293T cells were transfected with human SAS1B full length cDNA for 66 h. Immuno-precipitation of SAS1B was completed with SB1, SB2, SB4 and SB5 monoclonal antibodies. Following SAS1B immunoprecipitation, detection was completed with mouse anti-His tag mAb at C-terminus. Immunoprecipitated samples were analyzed by protein staining with Coomassie staining. Immunoprecipitated sample was also analyzed by MS/MS analysis. VH and VL chain CDR1-3 regions were sequenced for the confirmed anti-SAS1B mAbs. Immunoprecipitation was performed with N-terminal mAbs from transfected cells extracted with RIPA/protease inhibitor. Detection of the SAS1B immunoprecipitation product was completed with HRP peroxidase conjugated mouse anti-His mAb at 1:3000 or 1:5000 dilution. HEK293T cells were seeded at 250,000. The cells were transfected with […] of SAS1B-SVA plasmid into each of the two T-75 flasks (at ˜90% confluency) for ˜66 h at 37 C and 5% CO2. Following transfection, two saline washes were completed with 1×HBSS. Lysed cells were incubated with RIPA+protease inhibitor for one hour on ice with mixing to ensure homogenous lysate and supernatant used for IP (RIPA: 25 mM Tris-HCl (pH 7.6), 150 mM NaCl, 1% NP-40, 1% sodium deoxycholate, 0.1% SDS). For the immunoprecipitation, 3 mg magnetic bead coupled protein G were suspended and incubated with […] of each SAS1B monoclonal antibody for 10 minutes. The magnetic bead/antibody complex was washed with PBST once, followed by incubation with […] antigen extract for 20 min. The post-immunoprecipitation sample was saved for comparison. Three 200 mL washes with washing buffer+protease inhibitor were completed. The fourth wash used only 100 mL of wash buffer+protease inhibitor. The magnetic beads were transferred to a new micro-centrifuge tube. 1× Lamelli buffer was added to bead/antibody/antigen complex for subsequent analysis. The sample was boiled at 98° C. for 10 min in 1× Lamelli buffer and the supernatant transferred to a new tube. The immunoprecipitation sample was analyzed by western blot and Coomassie blue staining. The SDS-PAGE samples (pre-IP, IP, and post IP extracts) were resolved with 12% TGX Criterion gels at 30 milliamps for 1 hr. Coomassie stain was added to determine the profile of IP samples. Following SDS-PAGE resolution, bands were transferred to nitrocellulose membrane at 1 Amp for 1 h at 5° C. The membrane was blocked with 5% dry milk/PBST, and incubated with mouse anti-His monoclonal antibody conjugated with HRP for 1 hr at RT at 1:3000 or 1:5000 dilution. The membranes were imaged with TMB solution.
A unique ˜52 kD band was recovered in SB5 IP. SB5 (IgG2b) has a different isotype than SB1 (IgG2a), and 3A7 (IgG1). The ˜52 kD band from the SB5 immunoprecipitation was isolated, restained with Coomassie blue and submitted for MS/MS to verify protein identity. The MS/MS nanospray ion source was operated at 2.5 kV. The digest was analyzed using the rapid switching capability of the instrument acquiring a full screen mass spectrum to determine peptide molecular weights followed by product ion spectra to determine amino acid sequence in sequential scans. This mode of analysis produces about 20,000 MS/MS spectra of ions ranging in abundance over several orders of magnitude. Not all MS/MS spectra are derived from peptides. The data were analyzed using the Sequest search algorithm against Uniprot Human and SwissProt.

[1] = biological target: T2, human SAS1B protein with a C-terminal V5 tag expressed by HEK293T cells (Homo sapiens, UniProt Q6HA08); assay: Double immunofluorescence on fixed and permeabilized HEK293T cells transfected with SAS1B SV-A with V5 tag; assay type: cell-based; conditions: for IF signal / colocalization with V5-tag epitope signal: SV-A transfected HEK293T, PFA fixed, methanol permeabilized, mAbs at 10 ug/ml
T2 construct: expressed in transfected cells; host or cells: HEK293T
T2 sequence (Q6HA08 24-431): T1 sequence (Q6HA08 24-431)
Description: Experiments were conducted to determine the specificity of anti-human SAS1B monoclonal antibodies SB1, SB2, SB3, SB4, SB5, SB6 and SB7 against the human SAS1B protein with a C-terminal V5 tag expressed by HEK293T cells by double immuno-fluorescence from two different SAS1B epitopes. HEK293T cells were seeded at ˜100,000 per well of a 24 well plate containing a lysine-coated 12 mm coverslip. 24 hours later, the cells were transfected with 1 ug of SV-A plasmid with 2 ul of TURBOFECT® transfection reagent followed by no change of media. 48 h later the cells were PFA (paraformaldehyde) fixed and methanol permeabilized for an IF study as follows.
The cells were removed from cell culture media and fixed in 4% PFA in PBS, 300 ul for 15 min. The cells were washed in 1 ml PBS in wells for 3 times and permeabilized in methanol (100%) for 15 min in 0.5 ml at RT. The cells were washed in PBS 1 ml for 3 times and blocked in complete culture media (DMEM) with 5% normal goat serum (NGS) for 30 min (i.e. BB, blocking buffer). The first antibody in BB was added for 1 h at 10 ug/ml for mouse monoclonal antibodies (SB1, SB2, SB3, SB4, SB5, SB6, SB7) and 5 ug/ml for anti-V5 DYLIGHT® 488 (green) rabbit (a rabbit polyclonal antibody to V5 tag). The cells were washed in PBS 3 times. The second antibody in BB (Goat anti-mouse Alexa Flour 594, red) was added for 1 h at 5 ug/ml (1:200 dilution). The cells were washed in PBS 3 times. The cells were mounted in slow fade DAPI 3 ul and stored at 4° C. before confocal imaging.

B1: SB1: mouse anti-SAS1B monoclonal antibody, IgG2a; VH SEQ ID NO:12, VL SEQ ID NO:13 (antibody, listed as Mus musculus, V domains shown)
VH: EVQLQQSGPELVKPGSSVKISCKASGYTFTDYNMDWVKQSHGKSLEWIGAINPNNGGTSYNQKFKGKATLTVDKSSSTAYMELRSLTSEDSAVYYCATNEYWGQGTTLTVSS
VL: NIVMTQSPKSMSMSVGERVTLSCKASENVGTYVSWYQQKPEQSPKLLIYGASNRYTGVPDRFTGSGSATDFTLTISSVQAEDLADYHCGQSYSYPWTFGGGTKLEIK
- Depletion of SAS1B in post IP sample compared to starting material (human SAS1B): relative depletion of antigen in post IP samples
- Pull down (immunoprecipitation) of SAS1B (human SAS1B): pulled down
- IF signal / colocalization with V5-tag epitope signal [1]: lack of a signal
- Signal on mock transfected HEK293T cells [1]: no V5 signal or SAS1B signal

B2: SB2: mouse anti-human SAS1B monoclonal antibody, IgG2b; VH SEQ ID NO:14, VL SEQ ID NO:15 (antibody, listed as Mus musculus, V domains shown)
VH: EVQLQQSGPELVKPGSSVKISCKASGYTFTDYNMVWVKQSHGKSLEWIGAVNPNNGGTSYNQKFKGKATLTVDKSSSTAYMELRSLTSEDSAVYYCVPNWDWFAYWGQGTLVTVSA
VL: DVLMTQTPLSLPVSLGDQASISCRSSQSLVHSNGNTYLEWYLQKPGQSPNLLIYKVSNRFSGVPDRFSGSGSGTDFTLKISRVEAEDLGVYYCFQGSHVPFTFGSGTKLEIK
- Pull down (immunoprecipitation) of SAS1B (human SAS1B): pulled down recombinant SAS1B
- IF signal / colocalization with V5-tag epitope signal [1]: colocalize (merge) with V5-tag epitope signal
- Signal on mock transfected HEK293T cells [1]: no V5 signal or SAS1B signal

B4: SB3: mouse anti-human SAS1B monoclonal antibody, IgG2b; VH SEQ ID NO:14, VL SEQ ID NO:15 (antibody, listed as Mus musculus, V domains shown)
VH: B2 VH
VL: B2 VL
- Pull down (immunoprecipitation) of SAS1B (human SAS1B): immunoprecipitate “native” SAS1B
- IF signal / colocalization with V5-tag epitope signal [1]: colocalize (merge) with V5-tag epitope signal
- Signal on mock transfected HEK293T cells [1]: no V5 signal or SAS1B signal

The next lines start with results.

- Depletion of SAS1B in post IP sample compared to starting material (human SAS1B): clear relative reduction of SAS1B
- Signal on mock transfected HEK293T cells [1]: no V5 signal or SAS1B signal
B3: SB4: mouse anti-human SAS1B monoclonal antibody, IgG2a; VH SEQ ID NO:16, VL SEQ ID NO:17 (antibody, listed as Mus musculus, V domains shown)
VH: B2 VH with A24P, V37M, V51I, S59T, V97A
VL: B2 VL with L29I, V30L, N50K
- Pull down (immunoprecipitation) of SAS1B (human SAS1B): pulled down recombinant SAS1B; also recorded: immunoprecipitate “native” SAS1B
- IF signal / colocalization with V5-tag epitope signal [1]: colocalize (merge) with V5-tag epitope signal; also recorded: recognizing native SAS1B in fixed cells

- Signal on mock transfected HEK293T cells [1]: no V5 signal or SAS1B signal
B5: SB5: mouse anti-human SAS1B monoclonal antibody, IgG2b; VH SEQ ID NO:16, VL SEQ ID NO:18 (antibody, listed as Mus musculus, V domains shown)
VH: B2 VH with A24P, V37M, V51I, S59T, V97A
VL: B2 VL with T7I, L29I, V30L, N50K
- Depletion of SAS1B in post IP sample compared to starting material (human SAS1B): relative depletion of antigen in post IP samples
- MS/MS analysis of the IP sample (~52 kD band) (human SAS1B): confirmed the specificity of the mAb for Human SAS1B protein
- Pull down (immunoprecipitation) of SAS1B (human SAS1B): pulled down; also recorded: immunoprecipitate “native” SAS1B
- IF signal / colocalization with V5-tag epitope signal [1]: colocalize (merge) with V5-tag epitope signal

Reference: patent US20210269549A1, “ANTI-SAS1B ANTIBODIES, ASSOCIATED METHODS OF USE, AND COMPOSITIONS AND METHODS FOR DETECTING AND TREATING CANCER” (UNIVERSITY OF VIRGINIA PATENT FOUNDATION, priority 2015, published 2021)
